Measured values published in publication PMC5785340, “MaRAP2‐4, a waterlogging‐responsive ERF from Mentha, regulates bidirectional sugar transporter AtSWEET10 to modulate stress response in Arabidopsis”.

B1: AtSWEET10 promoter probe with overlapping DRE and GCC (dsDNA)
DNA 1: ATGATTCACGGCCGCCGACGCCGTTCGTTACCA
DNA 2: TGGTAACGAACGGCGTCGGCGGCCGTGAATCAT
B2: AtSWEET10 promoter probe with DRE only (dsDNA)
DNA 1: AATTTCGCATGCCGACATCAATGTGCGCACAACA
DNA 2: TGTTGTGCGCACATTGATGTCGGCATGCGAAATT

Target: MaRAP2-4 (Mentha arvensis, UniProt A0A1Z2X6Y3 1-315)
Experiment: EMSA; DIG Gel Shift Kit 2nd Generation (Roche), manufacturer's protocol; buffer, pH and temperature not stated
Settings: protein: recombinant; tags: GST (pGEX-4T2); label: DIG

Chain of MaRAP2-4 (A0A1Z2X6Y3 entry or part of it): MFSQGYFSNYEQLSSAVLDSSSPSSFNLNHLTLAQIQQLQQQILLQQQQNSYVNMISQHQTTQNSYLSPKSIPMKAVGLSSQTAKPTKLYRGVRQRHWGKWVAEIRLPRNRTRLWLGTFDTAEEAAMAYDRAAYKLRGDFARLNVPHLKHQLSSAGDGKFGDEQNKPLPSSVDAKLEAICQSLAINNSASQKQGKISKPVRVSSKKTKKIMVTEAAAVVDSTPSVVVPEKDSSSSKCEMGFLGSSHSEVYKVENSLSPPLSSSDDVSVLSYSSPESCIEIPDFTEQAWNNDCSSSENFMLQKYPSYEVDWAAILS

Binder | binding result
B1 | binds
B2 | binds
